# T1: NS5A-TP2 (two-hybrid prey) (human, UniProt Q7Z4H3 1-204)
# T1 sequence: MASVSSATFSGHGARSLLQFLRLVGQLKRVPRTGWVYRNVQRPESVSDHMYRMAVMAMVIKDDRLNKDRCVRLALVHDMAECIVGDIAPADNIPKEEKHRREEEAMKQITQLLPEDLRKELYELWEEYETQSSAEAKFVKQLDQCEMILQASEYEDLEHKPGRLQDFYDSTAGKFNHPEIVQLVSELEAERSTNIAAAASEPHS
# Legend:
# [1] = molecular target: T2, CNA construct CNA11, two-hybrid prey (Mus musculus (Mouse), UniProt P48453 384-495); assay: yeast two-hybrid assay (FIG. 14)
# T2 construct: not shown: HA-pJG4-5 prey fusion moiety
# [2] = molecular target: T3, CNA beta C ter-delta 1 (amino acids 378 to 500), two-hybrid prey (human, UniProt P16298 378-500); assay: yeast two-hybrid mating assay
# T3 construct: also called CnAβCter Δ1
# Procedure: (§1) The 5′ end of RH6 (upper case) matches part of the HA epitope tag and the 5′ ends of RH4, RH3 and RH7 (upper case) match the 5′ extremity of the ADH terminator. The PCR reactions was performed using pCMV-SPORT6-CnAβ as a template. […] MB210a was co-transformed with the PCR products and EcoRI/XhoI-cut pJG4-5. The prey plasmids were retrieved from the transformants (21) and the homologous recombination products were checked by sequencing. MB210a was also transformed with positive and negative controls of interaction. […] The yeast two-hybrid mating assays were performed as described (21).
# [3] = molecular target: T4, CNA beta C ter-delta 2 (amino acids 378 to 456), two-hybrid prey (human, UniProt P16298 378-456); assay: yeast two-hybrid mating assay
# T4 construct: also called CnAβCter Δ2
# Procedure: as §1
# [4] = molecular target: T5, CNA beta C ter-CaM (amino acids 378 to 423), two-hybrid prey (human, UniProt P16298 378-423); assay: yeast two-hybrid mating assay
# T5 construct: also called CnAβCter CaM
# Procedure: as §1
# [5] = molecular target: T1, NS5A-TP2 (two-hybrid prey); assay: yeast two-hybrid assay (FIG. 9)
# From the text: (§2) CNA beta and gamma C-Terminal fragments and NS5A-TP2 were cloned in three different vectors (pSH18-34, pJK103 and pRB18-40). These three plasmids differ from each other in the level of sensitivity of their promoter, pSH18-34 having the highest sensitivity and pRB18-40 having the lowest.
# [6] = molecular target: T6, CNAγ C-terminal fragment (calcineurin A gamma clone selected from the testes cDNA library, two-hybrid prey) (human, UniProt P48454 365-512); assay: yeast two-hybrid mating assay
# T6 construct: Truncated protein; also called CNA gamma C-terminal fragment
# Procedure: as §1
# [7] = molecular target: T7, CNAβ C-terminal fragment (calcineurin A beta clone selected from the testes cDNA library, two-hybrid prey) (human, UniProt P16298 378-524); assay: yeast two-hybrid mating assay
# T7 construct: Truncated protein; The truncations made from it start at amino acid 378; also called CNA beta C-terminal fragment
# Procedure: as §1
# [8] = molecular target: T8, CNA construct CNA9, two-hybrid prey (Rattus norvegicus (Rat), UniProt P20651 342-419); assay: yeast two-hybrid assay, higher sensitivity (FIG. 14)
# T8 construct: not shown: HA-pJG4-5 prey fusion moiety
# [9] = molecular target: T2, CNA construct CNA11, two-hybrid prey; assay: as above
# [10] = molecular target: T9, CNA construct CNA4, two-hybrid prey (Homo sapiens (Human), UniProt P16298 414-524); assay: as above
# T9 construct: not shown: HA-pJG4-5 prey fusion moiety
# [11] = molecular target: T1, NS5A-TP2 (two-hybrid prey); assay: as above
# [12] = molecular target: T10, CNA construct CNA8, two-hybrid prey (Homo sapiens (Human), UniProt P16298 1-388); assay: as above
# T10 construct: not shown: HA-pJG4-5 prey fusion moiety
# [13] = molecular target: T11, CNA construct CNA7, two-hybrid prey (Homo sapiens (Human), UniProt P16298 1-413); assay: as above
# T11 construct: not shown: HA-pJG4-5 prey fusion moiety
# [14] = molecular target: T12, CNA construct CNA10, two-hybrid prey; assay: as above
# T12 construct: not shown: HA-pJG4-5 prey fusion moiety
# [15] = molecular target: T13, CNA construct CNA3, two-hybrid prey (Homo sapiens (Human), UniProt P16298 384-524); assay: as above
# T13 construct: not shown: HA-pJG4-5 prey fusion moiety
# [16] = molecular target: T6, CNAγ C-terminal fragment (calcineurin A …); assay: yeast two-hybrid assay (FIG. 9)
# From the text: as §2
# [17] = molecular target: T7, CNAβ C-terminal fragment (calcineurin A …); assay: yeast two-hybrid assay (FIG. 9)
# From the text: as §2
# T6 sequence (P48454 365-512): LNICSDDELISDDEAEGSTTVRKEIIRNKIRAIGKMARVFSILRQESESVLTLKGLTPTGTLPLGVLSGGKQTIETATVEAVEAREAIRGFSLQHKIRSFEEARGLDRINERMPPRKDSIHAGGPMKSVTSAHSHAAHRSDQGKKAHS
binder,measurement,setting,value
"LexA-R5G42 fusion protein (peptide aptamer R5G42 as two-hybrid bait) (designed binder, not shown: large carriers, also called LexA-R5G42 bait protein) MVKQIESKTAFQEALDAAGDKLVVVDFSATWCGPSAVTFAVCALGPCKMIKPFFHSLSEKYSNVIFLEVDVDDCQDVASECEVKCMPTFQFFKKGQKVGEFSGANKEKLEATINELV",binding result,[1],binds
same,binding result,[2],binds
same,binding result,[3],no binding
same,binding result,[4],no binding
"R5G42 mutant C7 (LexA fusion, two-hybrid bait) (designed binder, One amino acid change against R5G42; also called R5G42-C7; not shown: LexA fusion partner (pGILDA bait)) MVKQIESKTAFQEALDAAGDKPVVVDFSATWCGPSAVTFAVCALGPCKMIKPFFHSLSEKYSNVIFLEVDVDDCQDVASECEVKCMPTFQFFKKGQKVGEFSGANKEKLEATINELV",binding result,[5],no binding
same,binding result,[1],binds
"R5G42 mutant C8 (LexA fusion, two-hybrid bait) (designed binder, One amino acid change against R5G42; also called R5G42-C8; not shown: LexA fusion partner (pGILDA bait)) MVKQIESKTAFQEALDAAGDKLVVVDFSATWCGPSAVTIAVCALGPCKMIKPFFHSLSEKYSNVIFLEVDVDDCQDVASECEVKCMPTFQFFKKGQKVGEFSGANKEKLEATINELV",binding result,[5],no binding
same,binding result,[1],binds
"LexA-R7G44 fusion protein (peptide aptamer R7G44 as two-hybrid bait) (designed binder, Control aptamer; not shown: LexA (E. coli), fusion partner from pGILDA) MVKQIESKTAFQEALDAAGDKLVVVDFSATWCGPHQSTIGVAEFGPCKMIKPFFHSLSEKYSNVIFLEVDVDDCQDVASECEVKCMPTFQFFKKGQKVGEFSGANKEKLEATINELV",binding result,[6],no binding
same,binding result,[7],no binding
"R5G42 mutant C2 (LexA fusion, two-hybrid bait) (designed binder, One amino acid change against R5G42; also called R5G42-C2; not shown: LexA fusion partner (pGILDA bait)) MVKQIESKTAFQEALDAAGDKLVVVDFSATWCGPSAVTFAVCALGPCKMIKLFFHSLSEKYSNVIFLEVDVDDCQDVASECEVKCMPTFQFFKKGQKVGEFSGANKEKLEATINELV",binding result,[5],no binding
same,binding result,[1],binds
"LexA-R5G52 fusion protein (peptide aptamer R5G52 as two-hybrid bait) (designed binder, also called LexA-R5G52 bait protein; not shown: LexA (E. coli), fusion partner from pGILDA) MVKQIESKTAFQEALDAAGDKLVVVDFSATWCGPIQSPPESPTGGPCKMIKPFFHSLSEKYSNVIFLEVDVDDCQDVASECEVKCMPTFQFFKKGQKVGEFSGANKEKLEATINELV",binding result,[8],no binding
same,binding result,[9],no binding
same,binding result,[10],no binding
same,binding result,[11],no binding
same,binding result,[12],no binding
same,binding result,[13],no binding
same,binding result,[14],no binding
same,binding result,[15],no binding
"R5G42 mutant N9 (LexA fusion, two-hybrid bait) (designed binder, One amino acid change against R5G42; also called R5G42-N9; not shown: LexA fusion partner (pGILDA bait)) MVKQIESKTAFQEALDAAGDKLVVVDFSAAWCGPSAVTFAVCALGPCKMIKPFFHSLSEKYSNVIFLEVDVDDCQDVASECEVKCMPTFQFFKKGQKVGEFSGANKEKLEATINELV",binding result,[16],no binding
same,binding result,[17],no binding
same,binding result,[1],binds

# Source: US20120245092A1 (ECOLE NORMALE SUPERIEURE DE LYON, published 2012)
